Measured values taken from paper PMC13431160.

Target: IRE1, ER stress sensor RNase, endogenous in HCT116 cells (human (endogenous in HCT116)) (UniProt O75460)
Test: co-IP; endogenous IRE1 immunoprecipitated from HCT116 WT lysate (anti-IRE1 clone B-12 cross-linked to protein G Dynabeads, 3 h at 4°C; 25 mM HEPES pH 7.3, 150 mM NaCl, 0.5% NP-40); cells treated with DMSO or TM 5 µg/mL 4 h; with or without RNase I and RNase T1 in the second wash; Western blot of IGF2BP3

Sequence of UniProt O75460 (O75460 19-977): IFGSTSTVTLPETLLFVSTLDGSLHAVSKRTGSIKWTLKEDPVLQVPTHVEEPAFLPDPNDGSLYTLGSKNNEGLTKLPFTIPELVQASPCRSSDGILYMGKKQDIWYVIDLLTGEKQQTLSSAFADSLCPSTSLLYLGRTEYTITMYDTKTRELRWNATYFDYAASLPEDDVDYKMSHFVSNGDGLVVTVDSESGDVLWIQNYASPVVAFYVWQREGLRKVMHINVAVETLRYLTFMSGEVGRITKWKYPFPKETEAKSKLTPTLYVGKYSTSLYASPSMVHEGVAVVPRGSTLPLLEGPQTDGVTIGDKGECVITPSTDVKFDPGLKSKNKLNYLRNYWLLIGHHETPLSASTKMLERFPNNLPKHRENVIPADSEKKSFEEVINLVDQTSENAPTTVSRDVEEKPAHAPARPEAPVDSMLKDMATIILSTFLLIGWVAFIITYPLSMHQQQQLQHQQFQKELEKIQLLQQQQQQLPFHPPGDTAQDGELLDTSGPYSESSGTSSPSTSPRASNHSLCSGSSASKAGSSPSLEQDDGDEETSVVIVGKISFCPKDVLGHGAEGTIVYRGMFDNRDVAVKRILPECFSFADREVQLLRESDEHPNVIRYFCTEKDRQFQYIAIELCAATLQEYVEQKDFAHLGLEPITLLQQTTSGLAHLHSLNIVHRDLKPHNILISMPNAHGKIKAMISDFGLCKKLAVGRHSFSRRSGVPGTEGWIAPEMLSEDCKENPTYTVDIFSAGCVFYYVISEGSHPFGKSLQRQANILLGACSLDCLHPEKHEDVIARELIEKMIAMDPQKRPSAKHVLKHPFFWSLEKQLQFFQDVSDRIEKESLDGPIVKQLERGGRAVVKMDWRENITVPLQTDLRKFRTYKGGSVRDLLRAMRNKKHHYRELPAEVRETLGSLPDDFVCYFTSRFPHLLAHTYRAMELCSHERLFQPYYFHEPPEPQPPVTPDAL

fold change of the interaction after 4 h of ER stress against unstressed controls: 1.6 fold
Substance: IGF2BP3 (insulin-like growth factor 2 mRNA-binding protein 3), endogenous in HCT116 cells (from UniProt O00425 1-579) (natural protein)
